Data: article PMC2563036, “The HLH-6 Transcription Factor Regulates C. elegans Pharyngeal Gland Development and Function”

How the values were obtained:
HLH-2;HLH-3 = HLH-2;HLH-3 (Caenorhabditis elegans;Caenorhabditis …, UniProt G5EEG9;Q22717 1-399;1-170, |); test: EMSA; co-translated in reticulocyte lysate; poly(dI-dC); EMSA with poly(dI-dC) (37 ng/ug as printed); 5% native PAGE, 100 V, 1 h, room temperature, 45 mM Tris, 45 mM boric acid, 1 mM EDTA pH 8; binding buffer not given in the material; conditions: protein: ivt;ivt; tags: ;His; copies: 1;1; as annealed 5' overhangs of 2 nt (TG) on both strands; end labelled with Klenow, which may fill them in
HLH-2;HLH-6 = HLH-2;HLH-6 (Caenorhabditis elegans;Caenorhabditis …, UniProt G5EEG9;Q10007 1-399;1-268, |); test: EMSA; reticulocyte lysate; poly(dI-dC); no shift though both proteins expressed; EMSA with poly(dI-dC) (37 ng/ug as printed); 5% native PAGE, 100 V, 1 h, room temperature, 45 mM Tris, 45 mM boric acid, 1 mM EDTA pH 8; binding buffer not given in the material; conditions: protein: ivt;ivt; tags: ;; copies: 1;1; as annealed 5' overhangs of 2 nt (TG) on both strands; end labelled with Klenow, which may fill them in
Sequence of HLH-2;HLH-6 (G5EEG9 whole entry, chain 1 of 2): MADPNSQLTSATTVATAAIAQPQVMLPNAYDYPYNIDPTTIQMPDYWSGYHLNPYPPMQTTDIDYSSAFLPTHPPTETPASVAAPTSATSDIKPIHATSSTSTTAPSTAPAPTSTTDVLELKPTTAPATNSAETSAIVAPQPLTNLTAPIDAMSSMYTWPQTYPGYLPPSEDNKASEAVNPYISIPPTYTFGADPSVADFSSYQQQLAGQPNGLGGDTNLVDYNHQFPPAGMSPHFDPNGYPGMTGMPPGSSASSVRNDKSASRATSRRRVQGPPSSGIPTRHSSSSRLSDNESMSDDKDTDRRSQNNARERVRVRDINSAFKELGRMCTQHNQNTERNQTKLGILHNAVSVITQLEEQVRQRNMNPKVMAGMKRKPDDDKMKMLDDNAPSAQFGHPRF
Sequence of HLH-2;HLH-6 (Q10007 whole entry, chain 2 of 2): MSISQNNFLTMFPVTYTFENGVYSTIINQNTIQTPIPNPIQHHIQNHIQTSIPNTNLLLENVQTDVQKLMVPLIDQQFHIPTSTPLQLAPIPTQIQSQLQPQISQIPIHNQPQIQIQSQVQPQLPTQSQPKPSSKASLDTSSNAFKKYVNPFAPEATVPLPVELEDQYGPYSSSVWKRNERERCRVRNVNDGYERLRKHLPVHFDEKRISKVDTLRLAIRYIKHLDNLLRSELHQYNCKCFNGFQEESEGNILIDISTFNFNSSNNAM

Sequence of HLH-2;HLH-3 (G5EEG9 whole entry, chain 1 of 2): as the sequence (G5EEG9 whole entry, chain 1 of 2) above
Sequence of HLH-2;HLH-3 (Q22717 whole entry, chain 2 of 2): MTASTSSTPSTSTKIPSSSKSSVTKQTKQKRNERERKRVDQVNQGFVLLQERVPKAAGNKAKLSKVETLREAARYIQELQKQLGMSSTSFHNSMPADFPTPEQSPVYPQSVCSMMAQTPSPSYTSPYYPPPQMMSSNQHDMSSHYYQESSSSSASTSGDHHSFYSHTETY

B1: phat-3 PGM1 probe (oGD137/oGD138) (dsDNA)
DNA 1: TGCAAACTTGATGCACCTGTTCAAATGTATGCCC
DNA 2: TGGGGCATACATTTGAACAGGTGCATCAAGTTTG
Which results are given for B1?
binding result (HLH-2;HLH-3): binds; binding result (HLH-2;HLH-6): no binding
